First the molecules themselves.
B1: GST-CIP2A(1-330) (domain or fragment)
chain: not shown
B2: CIP2A(331-560) (domain or fragment)
chain: not shown
B3: CIP2A(1-330), prey of the GST pull-down (domain or fragment)
chain: not shown

In one assay the target is CIP2A(1-560)-V5 (human, UniProt Q8TCG1 1-560). Description: pull-down.
The assay “GST-CIP2A(1-330)” has as its target B1. Nature of the assay: pull-down.

Consider three molecules from paper doi:10.1101/2025.10.13.682046 (bioRxiv, 2025).

As to B1, in the assay with CIP2A(1-560)-V5, the binding result was “binds”. The same measure, in the same setting: the entry for B2 is “binds”. In the case of B3, the binding result in the assay with GST-CIP2A(1-330) was “binds”.
